This passage reports Kd and IC50 results from the Immune Epitope Database (IEDB).

One experiment has as its target HLA-B*73:01. Kind of experiment: IEDB peptide-MHC binding, purified MHC/competitive/fluorescence; filed as Kd, often an IC50 or EC50 that approximates it; ≥ and ≤ were set here for values at or beyond the usual limits of such assays. The conditions noted are these: source organism: Vibrio cholerae V52.
Experiment [1] has as its target HLA-A*02:01. Kind of experiment: IEDB peptide-MHC binding, cellular MHC/competitive/fluorescence; ≥ and ≤ were set here for values at or beyond the usual limits of such assays. The conditions noted are these: source organism: Measles morbillivirus.
For experiment [2], the target named is HLA-C*14:02. The experiment in a line: IEDB peptide-MHC binding, purified MHC/direct/fluorescence; filed as Kd, often an IC50 or EC50 that approximates it; ≥ and ≤ were set here for values at or beyond the usual limits of such assays. The conditions noted are these: source organism: Homo sapiens.
A further experiment deals with HLA-B*35:01. The experiment in a line: IEDB peptide-MHC binding, purified MHC/competitive/fluorescence; ≥ and ≤ were set here for values at or beyond the usual limits of such assays. The note with it: source organism: Homo sapiens.
The target of the next experiment is HLA-A*01:01. Described as above. The conditions noted are these: source organism: Homo sapiens.
Experiment [3] concerns the target HLA-B*51:01. The experiment is described as above. The conditions noted are these: source organism: Homo sapiens.
The target in another experiment is HLA-B*53:01. The experiment is described as above. The conditions noted are these: source organism: Homo sapiens.
For a further experiment, the target named is HLA-B*14:02. The experiment is described as above. The conditions noted are these: source organism: Homo sapiens.
For experiment [4], the target named is HLA-A*03:01. The description is as above. The note with it: source organism: Homo sapiens.
The next experiment deals with HLA-B*44:03. The experiment is described as above. The note with it: source organism: Homo sapiens.
Another experiment concerns the target HLA-A*24:02. Described as above. The note with it: source organism: Homo sapiens.
For the next experiment, the target named is HLA-B*40:02. Described as above. The conditions noted are these: source organism: Homo sapiens.
The target of a further experiment is HLA-B*08:01. The experiment is described as above. The note with it: source organism: Homo sapiens.
The next experiment concerns the target HLA-A*11:01. The description is as above. The conditions noted are these: source organism: Homo sapiens.
The target in experiment [5] is HLA-A*02:01. Described as above. The conditions noted are these: source organism: Homo sapiens.
Experiment [6] deals with HLA-B*18:01. The description is as above. The note with it: source organism: Homo sapiens.
The target of the next experiment is HLA-B*37:01. The experiment is described as above. The note with it: source organism: Homo sapiens.
The target in another experiment is HLA-B*07:02. The description is as above. The conditions noted are these: source organism: Homo sapiens.
The target of experiment [7] is HLA-A*68:02. The description is as above. The conditions noted are these: source organism: Homo sapiens.
For a further experiment, the target named is HLA-A*25:01. The experiment is described as above. The conditions noted are these: source organism: Homo sapiens.
The target of experiment [8] is HLA-A*29:02. Described as above. The conditions noted are these: source organism: Homo sapiens.
Another experiment deals with HLA-B*58:01. The experiment is described as above. The conditions noted are these: source organism: Homo sapiens.
Another experiment addresses HLA-A*31:01. The experiment is described as above. The conditions noted are these: source organism: Homo sapiens.
A further experiment has as its target HLA-C*08:02. Kind of experiment: IEDB peptide-MHC binding, purified MHC/direct/fluorescence; filed as Kd, often an IC50 or EC50 that approximates it; ≥ and ≤ were set here for values at or beyond the usual limits of such assays. The conditions noted are these: source organism: Burkholderia mallei SAVP1.
The next experiment deals with HLA-B*27:03. The experiment in a line: IEDB peptide-MHC binding, purified MHC/competitive/fluorescence; filed as Kd, often an IC50 or EC50 that approximates it; ≥ and ≤ were set here for values at or beyond the usual limits of such assays. The conditions noted are these: source organism: Burkholderia mallei SAVP1.
In another experiment the target is HLA-B*46:01. Described as above. The conditions noted are these: source organism: Burkholderia mallei SAVP1.
The next experiment deals with HLA-B*15:17. Described as above. The conditions noted are these: source organism: Burkholderia mallei SAVP1.
Experiment [9] deals with HLA-A*69:01. Described as above. The note with it: source organism: Burkholderia mallei SAVP1.
The target of experiment [10] is HLA-B*51:01. The experiment is described as above. The conditions noted are these: source organism: Burkholderia mallei SAVP1.
For experiment [11], the target named is HLA-A*03:01. The experiment is described as above. The conditions noted are these: source organism: Burkholderia mallei SAVP1.
For experiment [12], the target named is HLA-A*02:01. The description is as above. The note with it: source organism: Burkholderia mallei SAVP1.
In experiment [13] the target is HLA-B*18:01. The experiment is described as above. The conditions noted are these: source organism: Burkholderia mallei SAVP1.
Experiment [14] deals with HLA-B*57:01. The experiment is described as above. The note with it: source organism: Burkholderia mallei SAVP1.
The target in experiment [15] is HLA-A*68:02. Described as above. The conditions noted are these: source organism: Burkholderia mallei SAVP1.
The next experiment addresses HLA-A*02:11. The experiment is described as above. The conditions noted are these: source organism: Burkholderia mallei SAVP1.
Experiment [16] has as its target HLA-A*29:02. Described as above. The note with it: source organism: Burkholderia mallei SAVP1.
The target of experiment [17] is HLA-A*26:01. The description is as above. The note with it: source organism: Burkholderia mallei SAVP1.
A further experiment deals with HLA-B*83:01. Described as above.
The target of another experiment is HLA-B*15:42. The experiment is described as above.
In the next experiment the target is HLA-B*45:06. The experiment is described as above.
Another experiment deals with HLA-C*04:01. The description is as above. The note with it: source organism: Yersinia pestis CO92.
In a further experiment the target is HLA-B*27:20. The experiment is described as above.
Experiment [18] deals with HLA-A*69:01. The experiment in a line: IEDB peptide-MHC binding, purified MHC/direct/fluorescence; filed as Kd, often an IC50 or EC50 that approximates it; ≥ and ≤ were set here for values at or beyond the usual limits of such assays. The conditions noted are these: source organism: Coxiella burnetii Q321.
For a further experiment, the target named is HLA-C*07:02. The experiment is described as above. The note with it: source organism: Coxiella burnetii RSA 493.
The target in experiment [19] is HLA-A*03:01. The experiment is described as above. The note with it: source organism: Coxiella burnetii Q321.
Experiment [20] concerns the target HLA-B*18:01. The description is as above. The conditions noted are these: source organism: Coxiella burnetii Q321.
In experiment [21] the target is HLA-B*57:01. The description is as above. The note with it: source organism: Coxiella burnetii Q321.
In experiment [22] the target is HLA-A*29:02. The description is as above. The note with it: source organism: Coxiella burnetii Q321.
The target of experiment [23] is HLA-A*26:01. The description is as above. The conditions noted are these: source organism: Coxiella burnetii Q321.
The target of experiment [24] is HLA-C*14:02. Kind of experiment: IEDB peptide-MHC binding, purified MHC/competitive/fluorescence; filed as Kd, often an IC50 or EC50 that approximates it; ≥ and ≤ were set here for values at or beyond the usual limits of such assays. The note with it: source organism: Coxiella burnetii RSA 493.
A further experiment concerns the target HLA-C*06:02. Described as above. The conditions noted are these: source organism: Coxiella burnetii RSA 493.
The mark [25] stands for this setting: source organism: Yersinia pestis CO92.
[26] abbreviates: source organism: Coxiella burnetii RSA 493.

NRTQGGLRA: in the experiment with HLA-B*73:01, the equilibrium dissociation constant (Kd) was 136 nM.

As to QLPEATFMV, the half-inhibitory concentration (IC50) with HLA-A*02:01 [1] is 2000 nM.

As to SLMASSPTSI, the Kd with HLA-C*14:02 [2] was 1120 nM. The concentration for half-maximal inhibition (IC50) with HLA-B*35:01, with HLA-A*01:01, with HLA-B*51:01 [3], in the experiment with HLA-B*53:01, with HLA-B*14:02 and in the experiment with HLA-A*03:01 [4] was not below 20 µM throughout. The IC50 with HLA-B*44:03 is not below 20 µM; in the experiment with HLA-A*24:02, 1240 nM; with HLA-B*40:02 it was not below 20 µM; with HLA-B*08:01, not below 20 µM; with HLA-A*11:01, not below 20 µM; with HLA-A*02:01 [5], 20.8 nM. The concentration for half-maximal inhibition (IC50) in the experiment with HLA-B*18:01 [6] is not below 20 µM; with HLA-B*37:01, not below 20 µM; in the experiment with HLA-B*07:02 it was 2510 nM; with HLA-A*68:02 [7], 1010 nM; with HLA-A*25:01, not below 20 µM; with HLA-A*29:02 [8], 1210 nM. Moreover, the IC50 with HLA-B*58:01 and in the experiment with HLA-A*31:01 was not below 20 µM throughout.

For the sequence RLDARLQVL, the Kd was 82 nM in the experiment with HLA-C*08:02; not below 20 µM with HLA-B*27:03; not below 20 µM with HLA-B*46:01; not below 20 µM with HLA-B*15:17; not below 20 µM in the experiment with HLA-A*69:01 [9]; not below 20 µM with HLA-B*51:01 [10]. Besides, the dissociation constant Kd in the experiment with HLA-A*03:01 [11] is not below 20 µM; with HLA-A*02:01 [12], 7.4 nM; with HLA-B*18:01 [13], not below 20 µM; with HLA-B*57:01 [14], not below 20 µM; with HLA-A*68:02 [15], not below 20 µM; with HLA-A*02:11, 1.1 nM. In addition, the equilibrium dissociation constant (Kd) was 1020 nM in the experiment with HLA-A*29:02 [16] and not below 20 µM with HLA-A*26:01 [17].

As for FRDRGQHVL, the dissociation constant Kd was not below 5 µM with HLA-B*83:01 (setting [25]); not below 5 µM with HLA-B*15:42 (setting [25]); not below 5 µM with HLA-B*45:06 (setting [25]); not below 5 µM with HLA-C*04:01; 0.4 nM in the experiment with HLA-B*27:20 (setting [25]).

Turning to YRATYSMAL, the Kd with HLA-A*69:01 [18] was not below 20 µM; with HLA-C*07:02, 80 nM; in the experiment with HLA-A*03:01 [19] it was not below 20 µM; in the experiment with HLA-B*18:01 [20], not below 20 µM; in the experiment with HLA-B*57:01 [21], not below 20 µM; with HLA-A*29:02 [22], not below 20 µM. Moreover, the Kd with HLA-A*26:01 [23] was not below 20 µM; with HLA-C*14:02 [24], 119 nM; with HLA-B*83:01 (setting [26]) it was not below 5 µM; with HLA-B*15:42 (setting [26]), not below 5 µM; with HLA-C*06:02 it was 6.1 nM; with HLA-B*45:06 (setting [26]), not below 5 µM. Also, in the experiment with HLA-B*27:20 (setting [26]), the Kd amounted to 0.7 nM.
